Assay results: the supplement of paper PMC9112550, “Optimization of the antimicrobial peptide Bac7 by deep mutational scanning” (BMC Biology, 2022)

Tested on: Escherichia coli TOP10
Experiment: shrunken log2 fold change of peptide-encoding DNA abundance (4.5 h post-induction vs induction); higher = less antimicrobial activity (less host growth inhibition)
Details: time post-induction: 4.5 h; library: site-saturation at positions 5, 18, 19, 20
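Also: peptides expressed intracellularly from a pBAD plasmid library in pooled LB shake-flask culture, induced with 0.3% L-arabinose, DNA abundance read by NGS, three biological replicates, DESeq2 with apeglm shrinkage.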

| Sequence | shrunken log2 fold change |
| --- | --- |
| RRIRSRPPRLPRPRPRPQTMPRP | -0.35 |
| RRIRSRPPRLPRPRPRPQWLPRP | -0.32 |
| RRIRSRPPRLPRPRPRPQYDPRP | -0.352 |
| RRIRSRPPRLPRPRPRPQYTPRP | -0.983 |
| RRIRSRPPRLPRPRPRPRADPRP | 0.387 |
| RRIRSRPPRLPRPRPRPRCKPRP | -0.134 |
| RRIRSRPPRLPRPRPRPRCMPRP | -0.0959 |
| RRIRSRPPRLPRPRPRPRCNPRP | 0.124 |
| RRIRSRPPRLPRPRPRPREEPRP | 0.369 |
| RRIRSRPPRLPRPRPRPRERPRP | 0.431 |
| RRIRSRPPRLPRPRPRPREVPRP | -0.0353 |
| RRIRSRPPRLPRPRPRPRFRPRP | 0.203 |
| RRIRSRPPRLPRPRPRPRGWPRP | 0.624 |
| RRIRSRPPRLPRPRPRPRHEPRP | -0.0516 |
| RRIRSRPPRLPRPRPRPRHRPRP | 0.121 |
| RRIRSRPPRLPRPRPRPRKCPRP | 0.149 |
| RRIRSRPPRLPRPRPRPRNCPRP | 0.5 |
| RRIRSRPPRLPRPRPRPRNRPRP | -0.198 |
| RRIRSRPPRLPRPRPRPRPFPRP | 0.188 |
| RRIRSRPPRLPRPRPRPRRLPRP | 0.193 |
| RRIRSRPPRLPRPRPRPRRPPRP | 0.364 |
| RRIRSRPPRLPRPRPRPRSLPRP | -0.0256 |
| RRIRSRPPRLPRPRPRPRSWPRP | 0.0511 |
| RRIRSRPPRLPRPRPRPRTCPRP | 0.0915 |
| RRIRSRPPRLPRPRPRPRVWPRP | 0.536 |

| Sequence | shrunken log2 fold change |
| --- | --- |
| RRIRSRPPRLPRPRPRPRYRPRP | -0.276 |
| RRIRSRPPRLPRPRPRPSAIPRP | 0.0168 |
| RRIRSRPPRLPRPRPRPSAYPRP | -0.0159 |
| RRIRSRPPRLPRPRPRPSCNPRP | -0.377 |
| RRIRSRPPRLPRPRPRPSEMPRP | -0.114 |
| RRIRSRPPRLPRPRPRPSFQPRP | -0.282 |
| RRIRSRPPRLPRPRPRPSFSPRP | -0.351 |
| RRIRSRPPRLPRPRPRPSGIPRP | -0.169 |
| RRIRSRPPRLPRPRPRPSIAPRP | -0.167 |
| RRIRSRPPRLPRPRPRPSIPPRP | -0.458 |
| RRIRSRPPRLPRPRPRPSIRPRP | -0.41 |
| RRIRSRPPRLPRPRPRPSKWPRP | -0.285 |
| RRIRSRPPRLPRPRPRPSLAPRP | 0.164 |
| RRIRSRPPRLPRPRPRPSLHPRP | -0.385 |
| RRIRSRPPRLPRPRPRPSLPPRP | -0.352 |
| RRIRSRPPRLPRPRPRPSMTPRP | -0.356 |
| RRIRSRPPRLPRPRPRPSNHPRP | -0.503 |
| RRIRSRPPRLPRPRPRPSQAPRP | -0.0295 |
| RRIRSRPPRLPRPRPRPSQNPRP | -0.321 |
| RRIRSRPPRLPRPRPRPSQPPRP | -0.14 |
| RRIRSRPPRLPRPRPRPSQRPRP | -0.0585 |
| RRIRSRPPRLPRPRPRPSRFPRP | -0.0392 |
| RRIRSRPPRLPRPRPRPSSHPRP | -0.0982 |
| RRIRSRPPRLPRPRPRPSVEPRP | -0.0505 |
| RRIRSRPPRLPRPRPRPSWEPRP | 0.0729 |

| Sequence | shrunken log2 fold change |
| --- | --- |
| RRIRSRPPRLPRPRPRPSWMPRP | -0.0505 |
| RRIRSRPPRLPRPRPRPSYKPRP | -0.659 |
| RRIRSRPPRLPRPRPRPSYNPRP | -0.759 |
| RRIRSRPPRLPRPRPRPTAEPRP | 0.825 |
| RRIRSRPPRLPRPRPRPTANPRP | 0.293 |
| RRIRSRPPRLPRPRPRPTCGPRP | 0.468 |
| RRIRSRPPRLPRPRPRPTDPPRP | -0.000503 |
| RRIRSRPPRLPRPRPRPTECPRP | -0.00271 |
| RRIRSRPPRLPRPRPRPTEGPRP | 0.139 |
| RRIRSRPPRLPRPRPRPTHNPRP | -0.133 |
| RRIRSRPPRLPRPRPRPTHVPRP | -0.117 |
| RRIRSRPPRLPRPRPRPTISPRP | -0.655 |
| RRIRSRPPRLPRPRPRPTIWPRP | 0.393 |
| RRIRSRPPRLPRPRPRPTKMPRP | 0.00603 |
| RRIRSRPPRLPRPRPRPTKYPRP | -0.52 |
| RRIRSRPPRLPRPRPRPTLVPRP | 0.366 |
| RRIRSRPPRLPRPRPRPTNQPRP | -0.311 |
| RRIRSRPPRLPRPRPRPTRPPRP | 0.645 |
| RRIRSRPPRLPRPRPRPTSIPRP | -0.102 |
| RRIRSRPPRLPRPRPRPTTDPRP | 0.0457 |
| RRIRSRPPRLPRPRPRPTTIPRP | 0.127 |
| RRIRSRPPRLPRPRPRPTTLPRP | -0.0324 |
| RRIRSRPPRLPRPRPRPTWTPRP | 0.764 |
| RRIRSRPPRLPRPRPRPTYCPRP | -0.112 |
| RRIRSRPPRLPRPRPRPTYTPRP | -0.24 |
